For test [1], the target named is bison NHA2ΔN (structural construct, tag removed by TEV) (Bison bison). Kind of test: cryo-EM structure.
Test [2] has the same target. Kind of test: cryo-EM structure. The source holds these as a separate data set.

Like-named read-outs stand apart in the source and are kept apart here.

The stoichiometry N is the number of molecules, sites or subunits per partner or assembly. For “bison NHA2ΔN (structural construct, tag removed by TEV) (domain or fragment)”, the stoichiometry N in test [1] and in test [2] was 2 in each case.

These data come from article doi:10.1101/2021.07.22.453398.
